{
  "source": "patent US20250270308A1",
  "about": "(UCB, published 2025)",
  "binders": {"B1": {"name": "CA185_01979 mouse Fab (no hinge) (Fab, V domains shown)", "VH": "EVHLVESGPGLVKPSQSLSLTCSVTGYSITNSYWDWIRKFPGNKMEWMGYINYSGSTGYNPSLKSRISISRDTSNNQFFLQLNSITTEDTATYYCARGTYGYNAYHFDYWGRGVMVTVSS", "VL": "DIQMTQSPASLSASLEEIVTITCQASQDIGNWLSWYQQKPGKSPHLLIYGTTSLADGVPSRFSGSRSGTQYSLKISGLQVADIGIYVCLQAYSTPFTFGSGTKLEIKR", "notes": "also called CA185_01979 mFab; CA185-01979 Fab fragment"}},
  "target": "T1, human TNFα in complex with compound (1) (human, UniProt P01375 77-233)",
  "T1 construct": "also called human TNFα + compound (1); compound-distorted human TNFα",
  "T1 sequence (P01375 77-233 limits assumed, one chain of several)": "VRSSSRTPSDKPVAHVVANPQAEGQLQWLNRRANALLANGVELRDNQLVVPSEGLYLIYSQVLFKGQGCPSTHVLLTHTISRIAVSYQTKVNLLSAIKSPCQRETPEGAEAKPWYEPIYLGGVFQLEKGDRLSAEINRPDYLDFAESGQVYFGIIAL",
  "experiment": "size exclusion HPLC",
  "data": [
    {"binder": "B1", "values": [
      {"measurement": "stoichiometry", "value": 1, "unit": "Fab per TNFα trimer"}
    ]}
  ]
}
